Literature values as cited in publication PMC5268426.
Where two headings read alike, the source gives them in different places. Each block holds one substance with its values, some of them ahead of it.

Tests used:
[1] = biological target: Pancreatic trypsin inhibitor (PTI) (Bos taurus) (UniProt P00974)
[2] = biological target: Prostasin (Homo sapiens) (UniProt Q16651)
[3] = biological target: Pancreatic trypsin inhibitor (PTI) (Bos taurus) (UniProt P00974); remark: listed apart in the source

Kd [1]: 0.06 pM
Substance: Trypsin (from UniProt P00760)

Ki [2]: 5 nM
Substance: HAI-2 (from UniProt O43291)

Kd [3]: 2000 nM
Substance: Trypsinogen (from UniProt P00760)
